Measured values: patent publication US20190031762A1, “POSTERIOR OCULAR FIBROSIS INHIBITION BY ANTAGONIZING PLACENTAL GROWTH FACTOR” (THROMBOGENICS NV, priority 2016, published 2019)
“Also recorded” adds a separate entry of the source.

How the values were obtained:
[1] = tested on: age-related macular edema (AMD); conditions: in vivo; cited from earlier work
mouse CNV model [2] = assay: Leukocyte infiltration (CD45 staining) in laser-induced CNV mouse model; assay type: in vivo
Description: (§1) Mice (C57BL/6J, male, 8-10 weeks old) were anesthetized by intraperitoneal injection (135 μL) of a mixture of ketamine hydrochloride (Anesketin; […]) and medetomidine (Domitor; 1 mg/mL) and their pupils dilated with one eye drop (50 μL) Tropicamide (Tropicol™; 5 mg/mL; Thea, Research Papers Clermont-Ferrand, France). Three laser burns were placed in one eye with a green laser at the 9, 12, 3 o'clock positions around the optic disk using a slit lamp delivery system with a hand-held cover slide as a contact lens moisturized with Genteal Gel™ (Novartis, Vilvoorde, Belgium). Each spot was placed with a spot size of 100 μm, laser duration of a 50 milliseconds and a power of 320 mW. […] Finally, 300 μL atipamezole (Antisedan; 5 mg/mL) was injected intraperitoneally to reverse the effect of medetomidine and to reduce sedation time.
(§2) At different time points after lasering, the compounds were administered intravitreally (IVT). The animal was anesthetized with a mixture of ketamine hydrochloride/medetomidine and the eye was treated with a drop of 0.4% oxybuprocaine (Unicaine; Thea Pharma). Intravitreal injections (1 μL) to one eye according to Tables 1 to 3 were performed by using an analytic science syringe (SGE Analytic Science) and glass capillaries with a diameter of 50-70 μm at the end, controlled by the UMP3I Microsyringe Injector and Micro4 Controller (all from World Precision Instruments Inc., Hertfordshire, UK). Finally, atipamezole (Antisedan) was injected intraperitoneally to reverse the effect of medetomidine and to reduce sedation time.
(§3) To analyze the in vivo efficacy of the different compounds, the retina was removed from the dissected posterior segments. These posterior eye cups, which included retinal pigment epithelium (RPE), the choroid and the sclera were stored in phosphate buffered saline (PBS).
On day 5 after lasering, a rat anti-mouse CD45 and F4/80 antibody ( 1/100; Pharmingen, Erembodegem, Belgium) was used overnight to stain all leukocytes and macrophages, respectively, diluted in Tris-buffered saline (TBS)-Triton 0.3% (v/v). The following day, the tissues were incubated for 2 hours with rabbit anti-rat biotin labeled antibody ( 1/300; DakoCytomation A/S, Copenhagen, Denmark), diluted in TBS-Triton 0.3%. Antibody binding was visualized by fluorescent staining using streptavidin-Alexa-568 ( 1/200; Molecular Probes, Life Technologies, Eugene, Oreg., USA) in TBS-Triton 0.3% for 2 hours. The flatmounts of the posterior eye cups were mounted with Prolong Gold with 4′,6-diamidino-2-phenylindole (DAPI, Molecular Probes). Images were obtained using a microscope with a digital camera
(Axiocam MrC5; Carl Zeiss, Oberkochen, Germany) at a magnification of 20×. Morphometric analyses were performed using commercial software (Axiovision; Zeiss, Oberkochen, Germany). The density of inflammation was determined by calculating the CD45-positive area as a proportion of the total lesion.

mouse CNV model [3] = assay: Posterior ocular collagen deposition (Col1a staining) in laser-induced CNV mouse model; assay type: in vivo; conditions: for reduction in collagen deposition (Col1a): IVT D0, 4, 10 and 20
Description: as §1, §2, §3
To stain for the presence of collagen type 1 (Colla) protein in the laser spots at day 30 after laser, a rabbit anti-collagen antibody (Abcam, 1/270) was used overnight, diluted in Tris-buffered saline (TBS)-Triton 0.5% (v/v) at 4° C. The following day, the tissues were incubated for 2 hours with goat anti rabbit IgG Alexa Fluor 555 (Life Technologies; A-21428), diluted 1/100 in TBS-Triton 0.3% (v/v) at 4° C. The flat mounts of the posterior eye cups were mounted with Prolong Gold with 4′,6-diamidino-2-phenylindole (DAPI, Molecular Probes). Images were obtained using a microscope with a digital camera (Axiocam MrC5; Carl Zeiss, Oberkochen, Germany) at a magnification factor of 20. Morphometric analyses were performed using commercial software (Axiovision; Zeiss, Oberkochen, Germany). The density of collagen deposition was determined by calculating the Colla-positive area as a proportion of the total lesion.
(§4) The mouse CNV model as described in Example 2.1 was used. At different time points after lasering, compounds were administered intraperitoneally (IP), or intravitreally (IVT), as indicated in Table 3.

mouse CNV model [4] = assay: Macrophage infiltration (F4/80 staining) in laser-induced CNV mouse model; assay type: in vivo; conditions: day 5 after lasering; IVT D0; compared to IgG; dose not stated
Description: as §1
At different time points after lasering, the compounds were administered intravitreally (IVT). The animal was anesthetized with a mixture of ketamine hydrochloride/medetomidine and the eye was treated with a drop of 0.4% oxybuprocaine (Unicaine; Thea Pharma). […]

[5] = tested on: retinal pigment epithelium (RPE) cell; conditions: Julien et al., Br J Ophthalmol 2014; cited from earlier work
[6] = tested on: retinal ganglion cells (RGCs); assay: Neuroretinal safety in naive mice: apoptotic cells in ganglion cell layer (TUNEL staining); assay type: in vivo, mouse; conditions: 25 mg/kg IP 3 times per week
Description: A TUNEL (terminal deoxynucleotidyl transferase-mediated biotinylated UTP nick end labeling) staining was performed to investigate apoptotic signal. Serial sections were deparaffinized, washed and treated with proteinase K ( 1/500; Qiagen, Venlo, the Netherlands) for 15 minutes. Next, sections are incubated with the TUNEL reaction mixture (In Situ Cell Death Detection Kit, POD; Roche, Mannheim, Germany) at 37° C. for 1 hour. Afterwards, the slides were mounted with Prolong Gold containing DAPI (Molecular Probes). Each section was scanned systematically from the temporal to the nasal or a serrata for fluorescent cells indicative of apoptosis. […]

mouse CNV model [7] = assay: Pericyte coverage (αSMA staining) in mouse CNV model; assay type: in vivo; conditions: day 14 after lasering, 25 mg/kg IP 3 times per week
Description: as §1, §4
To study pericyte coverage as a marker of vessel maturation, smooth muscle cell actin (SMA) was examined on serial […] paraffin sections. […] The amount of SMA cells present in the lesion was determined by the use of commercial software (Axiovision; Zeiss, Oberkochen, Germany).

[8] = tested on: retinal ganglion cells (RGCs); conditions: mouse, in vivo, ip, 25 mg/kg
Description: To investigate the safety of anti-PlGF and anti-VEGF-R2 on the retinal ganglion cell layer, naive mice (C75Bl/6 or Swiss mice) were injected with 25 mg/kg of anti-PlGF, anti-VEGF-R2 or control IgG 3 times a week for 6 weeks. Afterwards the mice were sacrificed and immunohistochemistry for the neuronal marker NeuN was performed. The samples were incubated overnight with the primary mouse anti-NeuN (Chemicon MAB377) 1/500. As secondary antibody, rabbit anti-mouse biotin-labeled 1/400 (Dako E0646) was added for 45 minutes. Subsequently, the sections were incubated with Streptavidin-HRP 1/100 in TNB for 30 minutes, followed by amplification with Biotin (kit NEL700) 1/50 in amplification buffer for 8 minutes and again incubated with Streptavidin-HRP 1/100 for 30 minutes (all from Perkin Elmer, Life Sciences). Hereafter, a 3,3-diaminobenzidine (DAB) staining (Fluka-Sigma Aldrich) was performed by adding peroxide to the tissue and a counterstaining was done with Harris hematoxylin (Merck). Viable RGCs were quantified 2 times on the same serial section on a defined length of the retina (250 μm) on either side of the optic nerve.

[9] = day 5, equimolar comparison FIG. 1B: 5D11D4 3.1 μg, DC101 3.1 μg, aflibercept 2.4 μg, TAAC 4 μg, vs IgG
[10] = day 30, equimolar comparison FIG. 2B: 5D11D4 3.1 μg, DC101 3.1 μg, aflibercept 2.4 μg, TAAC 4 μg, vs IgG
[11] = day 5, equimolar comparison FIG. 1B (5D11D4 3.1 μg, aflibercept 2.4 μg)
[12] = day 30, repeated IVT, 3.1 μg (FIG. 2A)
[13] = repeat experiment (FIG. 4), day 30, 3.1 μg/eye, compared to PBS

**Q.** With “ranibizumab: antibody fragment binding all VEGF-A isoforms” as the molecule, how does the “patients developing a posterior fibrotic scar” value [1] read?
**A.** The value was 24.7%.

**Q.** For `CC1(C)O[C@@H]2C[C@H]3[C@@H]4CCC5=CC(=O)C=C[C@]5(C)[C@@]4(F)[C@@H](O)C[C@]3(C)[C@]2(C(=O)CO)O1` [TAAC, triamcinolone acetonide, reference compound], which “effect on leukocyte infiltration (CD45), in words” value (shortened to “effect on leukocyte infiltration”) (mouse CNV model [2]; [9]) is on record?
**A.** Its value is “no effect”.

**Q.** What about the “effect on collagen deposition, in words” value (mouse CNV model [3]; [10]) of the same molecule?
**A.** The value was “no effect”.

**Q.** And the “reduction in collagen deposition (Col1a)” value (mouse CNV model [3]; repeat experiment (FIG. 4), day 30, 40 μg/eye, compared to PBS)?
**A.** The value was 49%.

**Q.** With “aflibercept: multispecific inhibitor capturing VEGF-A, VEGF-B and PlGF; tradename Eylea®, Bayer” as the molecule, how does the “effect on inflammation in laser-induced CNV, summary statement” value (mouse CNV model [2]; comparable reduction at comparable dose, dose not stated) read?
**A.** Its value is “able to reduce inflammation”.

**Q.** And the “reduction in leukocyte infiltration (CD45)” value (“reduction … (CD45)” below) (mouse CNV model [2]; [11])?
**A.** The value was 50%.

**Q.** What about the “effect on leukocyte infiltration” value (mouse CNV model [2]; day 5 after lasering, IVT D0, 2.4 μg, vs IgG (FIG. 1A)) of the same molecule?
**A.** Its value is “comparable effects”.

**Q.** What about the “effect on leukocyte infiltration” value (mouse CNV model [2]; day 5 after lasering, IVT D0, 20 μg, vs IgG (FIG. 1A)) of the same molecule?
**A.** Its value is “comparable effects”.

**Q.** What about the “reduction … (CD45)” value (mouse CNV model [2]; day 5 after lasering, single IVT D0, 2.4 μg, compared to IgG) of the same molecule?
**A.** Its value is “approximately 50%”.

**Q.** What about the “reduction … (CD45)” value (mouse CNV model [2]; day 5 after lasering, single IVT D0, 20 μg, compared to IgG) of the same molecule?
**A.** The value was “approximately 50%”.

**Q.** What about the “decrease of infiltration of macrophages (F4/80)” value (mouse CNV model [4]) of the same molecule?
**A.** The value was 52%.

**Q.** What about the “effect on collagen deposition, in words” value (mouse CNV model [3]; [10]) of the same molecule?
**A.** Its value is “no effect; also recorded: did not show any anti-fibrotic effects”.

**Q.** What about the “effect on collagen deposition, in words” value (mouse CNV model [3]; day 30, repeated IVT, 2.4 μg (FIG. 2A)) of the same molecule?
**A.** Its value is “no effect on collagen deposition”.

**Q.** And the “effect on collagen deposition, in words” value (mouse CNV model [3]; [12])?
**A.** The value was “did not show any anti-fibrotic effects”.

**Q.** What about the “effect on collagen deposition, in words” value (mouse CNV model [3]; day 30, repeated IVT, 20 μg (FIG. 2A)) of the same molecule?
**A.** Its value is “no effect on collagen deposition”.

**Q.** What about the “effect on posterior ocular fibrosis, summary statement” value (mouse CNV model [3]; laser-induced CNV, dose not stated) of the same molecule?
**A.** The value was “did not reduce posterior ocular fibrosis”.

**Q.** And the “effect on collagen deposition / fibrosis, in words” value (mouse CNV model [3]; repeat experiment (FIG. 4), day 30, equimolar amount 2.4 μg/eye, compared to PBS)?
**A.** The value was “did not reduce fibrosis”.

**Q.** And the “effect on RPE cell death, in words” value [5]?
**A.** The value was “increase retinal pigment epithelium (RPE) cell death”.

**Q.** Which “patients developing a posterior fibrotic scar” value [1] does the source give for “bevacizumab: antibody binding all VEGF-A isoforms” here?
**A.** Its value is 24.7%.

B1: 5D11D4: murine anti-murine PlGF-neutralizing antibody; heavy chain SEQ ID NO:12, light chain SEQ ID NO:13 (antibody, listed as Mus musculus, V domains shown)
VH: QVQLQQPGAELVRPGASVKLSCKASGYTFTNYWINWVKQRPGQGLEWIGNIYPSDSFTNYNQKFKDKATLTVDKSSSTAYMHLSSPTSDDSAVYYCTRDYRYDAVYALDYWGQGTSVTVSS
VL: QIVLTQSPAIMSASPGEKVTITCSASSSVSFIHWFQQKPGTSPKLWIYGTSNLASGVPARFSGSGSGTSSSLTISRMEAEDAATYYCQQRSRYPYTFGGGTKLEIK
modifications: VH 5D11D4; VL 5D11D4
**Q.** What does the source list for B1?
**A.** reduction in leukocyte infiltration (CD45) (mouse CNV model [2]; [11]): 50%; effect on leukocyte infiltration (CD45), in words (mouse CNV model [2]; [9]): decreased leukocyte infiltration; effect on leukocyte infiltration (CD45), in words (mouse CNV model [2]; day 5 after lasering, IVT D0, 1.5 μg, vs IgG (FIG. 1A)): decreased leukocyte infiltration; effect on leukocyte infiltration (CD45), in words (mouse CNV model [2]; day 5 after lasering, IVT D0, 3.1 μg, vs IgG (FIG. 1A)): decreased leukocyte infiltration; reduction in leukocyte infiltration (CD45) (mouse CNV model [2]; day 5 after lasering, single IVT D0, 1.5 μg, compared to IgG): 36%; reduction in leukocyte infiltration (CD45) (mouse CNV model [2]; day 5 after lasering, single IVT D0, 3.1 μg, compared to IgG): 46%; decrease of infiltration of macrophages (F4/80) (mouse CNV model [4]): 48%; effect on collagen deposition, in words (mouse CNV model [3]; [10]): delays the process of wound healing; also recorded: decreased collagen deposition; effect on collagen deposition, in words (mouse CNV model [3]; day 30, repeated IVT, 1.5 μg (FIG. 2A)): decreased collagen deposition; effect on collagen deposition, in words (mouse CNV model [3]; [12]): decreased collagen deposition; reduction in collagen deposition (Col1a) (mouse CNV model [3]; day 30 after lasering, 1.5 μg, compared to IgG): 43%; reduction in collagen deposition (Col1a) (mouse CNV model [3]; day 30 after lasering, 3.1 μg, compared to IgG): 44%; effect on collagen deposition / fibrosis, in words (mouse CNV model [3]; [13]): significantly decreased collagen deposition; reduction in collagen deposition (Col1a) (mouse CNV model [3]; [13]): 44%; apoptotic cells per retinal area versus control IgG, in words ([6]; C57Bl/6 mice, after 6 weeks): comparable; apoptotic cells per retinal area in the ganglion cell layer (TUNEL) ([6]; C57Bl/6 mice, after 6 weeks, control IgG 16±2): 20±4 apoptotic cells per retinal area; effect on apoptotic cells / apoptotic rate, in words ([6]; Swiss mice (Rd gene)): did not induce any alteration; αSMA-positive area versus control IgG, in words (mouse CNV model [7]): increased the αSMA (smooth muscle cell actin) positive area; increase in pericyte-covered vessels (mouse CNV model [7]; vs control IgG): 35%; RGCs/retinal area versus other treatment groups, in words [8]: not significantly different; effect on RGC density, in words [8]: did not induce any alteration; ganglion cell density (RGC/retinal area) [8]: 4600 RGC/retinal area
